In the supplement of paper PMC7125110:
± gives the standard error. For some of these results: Variants at the floor of the assay were thinned out.

B1: glmS ribozyme (parent)
chain: AUAAAAGCGCCAGAACUACAGAAAUGUAGUUGACGAGGAGGAGGUUUAUCGAAUUUUCGGCGGAUGCCUCCAAA

Key:
Conditions in all cases: with glucosamine-6-phosphate
glucosamine-6-phosphate [1] = variants of: B1; assay: kcat; higher = faster cleavage; RNA array
Procedure, shortened: (§1)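 Glucosamine-6-phosphate (40 μM to 10 mM) in HEPES/KCl/Mg(OAc)2 buffer was flowed over sequenced MiSeq chips, and tiles were imaged over ~14 h. Barcoded ribozyme variants there had been transcribed in situ by E. coli RNA polymerase and were tracked through a hybridised Cy3 probe at 37 °C. One- or two-exponential decay fits to per-tile medians, normalised to baseline and to non-cleaving reference variants, gave kobs. kcat and KM came from weighted Michaelis–Menten fits across concentrations.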

glucosamine-6-phosphate [2] = variants of: B1; assay: self-cleavage kobs at 40 uM GlcN6P; higher = faster cleavage; RNA array
Procedure, shortened: as §1

glucosamine-6-phosphate [3] = variants of: B1; assay: self-cleavage kobs at 640 uM GlcN6P; higher = faster cleavage; RNA array
Procedure, shortened: as §1

glucosamine-6-phosphate [4] = variants of: B1; assay: KM; higher = weaker cofactor use; RNA array
Procedure, shortened: as §1

glucosamine-6-phosphate [5] = variants of: B1; assay: self-cleavage kobs at 160 uM GlcN6P; higher = faster cleavage; RNA array
Procedure, shortened: as §1

glucosamine-6-phosphate [6] = variants of: B1; assay: self-cleavage kobs at 2500 uM GlcN6P; higher = faster cleavage; RNA array
Procedure, shortened: as §1

glucosamine-6-phosphate [7] = variants of: B1; assay: self-cleavage kobs at 10000 uM GlcN6P; higher = faster cleavage; RNA array
Procedure, shortened: as §1

In the case of G37U U47G, the kcat (glucosamine-6-phosphate [1]) is reported as less than 1e-05 s⁻¹, the “self-cleavage kobs at 40 uM GlcN6P” value (glucosamine-6-phosphate [2]) is reported as less than 1e-05 s⁻¹ and the “self-cleavage kobs at 640 uM GlcN6P” value (glucosamine-6-phosphate [3]) is reported as less than 1e-05 s⁻¹.

For G44C C68U, the kcat (glucosamine-6-phosphate [1]) was 8.31e-05 ± 1.5e-05 s⁻¹, the KM (glucosamine-6-phosphate [4]) was 5560 ± 1800 µM and the “self-cleavage kobs at 40 uM GlcN6P” value (glucosamine-6-phosphate [2]) was less than 1e-05 s⁻¹. For the same variant, the “self-cleavage kobs at 160 uM GlcN6P” value (glucosamine-6-phosphate [5]) was less than 1e-05 s⁻¹ and the “self-cleavage kobs at 2500 uM GlcN6P” value (glucosamine-6-phosphate [6]) was 2.65e-05 ± 1.2e-05 s⁻¹.

For C10U U69C, the kcat (glucosamine-6-phosphate [1]) was 2.21e-05 ± 5.7e-06 s⁻¹.

With U56C C58G the kcat (glucosamine-6-phosphate [1]) was 2.76e-05 ± 8.3e-06 s⁻¹.

For U46A U54A, the kcat (glucosamine-6-phosphate [1]) was 0.00331 ± 0.00047 s⁻¹, the KM (glucosamine-6-phosphate [4]) was 1420 ± 350 µM and the “self-cleavage kobs at 40 uM GlcN6P” value (glucosamine-6-phosphate [2]) was 0.000104 ± 1.9e-05 s⁻¹. For the same variant, the “self-cleavage kobs at 160 uM GlcN6P” value (glucosamine-6-phosphate [5]) was 0.000321 ± 8.4e-05 s⁻¹, the “self-cleavage kobs at 640 uM GlcN6P” value (glucosamine-6-phosphate [3]) was 0.000932 ± 0.00035 s⁻¹ and the “self-cleavage kobs at 2500 uM GlcN6P” value (glucosamine-6-phosphate [6]) was 0.00181 ± 0.00029 s⁻¹. The “self-cleavage kobs at 10000 uM GlcN6P” value (glucosamine-6-phosphate [7]) was 0.00334 ± 0.00047 s⁻¹.

With C10A C67G the kcat (glucosamine-6-phosphate [1]) was 8.97e-05 ± 1.7e-05 s⁻¹, the “self-cleavage kobs at 40 uM GlcN6P” value (glucosamine-6-phosphate [2]) was 2.69e-05 ± 1.1e-05 s⁻¹ and the “self-cleavage kobs at 640 uM GlcN6P” value (glucosamine-6-phosphate [3]) was 8.76e-05 ± 1.4e-05 s⁻¹. For the same variant, the “self-cleavage kobs at 2500 uM GlcN6P” value (glucosamine-6-phosphate [6]) was 7.6e-05 ± 1.7e-05 s⁻¹.

U30C C50U was tested, and the kcat (glucosamine-6-phosphate [1]) was less than 1e-05 s⁻¹.

With U30C C50G the kcat (glucosamine-6-phosphate [1]) was 0.000183 ± 3.9e-05 s⁻¹, the “self-cleavage kobs at 40 uM GlcN6P” value (glucosamine-6-phosphate [2]) was 0.000126 ± 3.1e-05 s⁻¹ and the “self-cleavage kobs at 160 uM GlcN6P” value (glucosamine-6-phosphate [5]) was 0.000338 ± 0.00011 s⁻¹. The “self-cleavage kobs at 640 uM GlcN6P” value (glucosamine-6-phosphate [3]) was 0.000179 ± 4.8e-05 s⁻¹, the “self-cleavage kobs at 2500 uM GlcN6P” value (glucosamine-6-phosphate [6]) was 0.000149 ± 3.8e-05 s⁻¹ and the “self-cleavage kobs at 10000 uM GlcN6P” value (glucosamine-6-phosphate [7]) was 0.000318 ± 9.9e-05 s⁻¹.

With U30G U31C the kcat (glucosamine-6-phosphate [1]) was 0.00345 ± 0.00042 s⁻¹, the KM (glucosamine-6-phosphate [4]) was 2530 ± 520 µM and the “self-cleavage kobs at 40 uM GlcN6P” value (glucosamine-6-phosphate [2]) was 4.81e-05 ± 8.9e-06 s⁻¹. For the same variant, the “self-cleavage kobs at 160 uM GlcN6P” value (glucosamine-6-phosphate [5]) was 0.000238 ± 3.9e-05 s⁻¹, the “self-cleavage kobs at 640 uM GlcN6P” value (glucosamine-6-phosphate [3]) was 0.000578 ± 0.00015 s⁻¹ and the “self-cleavage kobs at 2500 uM GlcN6P” value (glucosamine-6-phosphate [6]) was 0.00207 ± 0.0003 s⁻¹. For the same variant, the “self-cleavage kobs at 10000 uM GlcN6P” value (glucosamine-6-phosphate [7]) was 0.00267 ± 0.00025 s⁻¹.

For G41C U55G, the kcat (glucosamine-6-phosphate [1]) was 0.00012 ± 1.1e-05 s⁻¹, the KM (glucosamine-6-phosphate [4]) was 1930 ± 750 µM and the “self-cleavage kobs at 2500 uM GlcN6P” value (glucosamine-6-phosphate [6]) was 8.8e-05 ± 3.3e-05 s⁻¹. The “self-cleavage kobs at 10000 uM GlcN6P” value (glucosamine-6-phosphate [7]) was 9.95e-05 ± 1.2e-05 s⁻¹.

In the case of C11U A12G, the kcat (glucosamine-6-phosphate [1]) is reported as 0.00116 ± 0.00011 s⁻¹, the KM (glucosamine-6-phosphate [4]) is reported as 1760 ± 310 µM and the “self-cleavage kobs at 160 uM GlcN6P” value (glucosamine-6-phosphate [5]) is reported as 9.07e-05 ± 1.3e-05 s⁻¹. The “self-cleavage kobs at 640 uM GlcN6P” value (glucosamine-6-phosphate [3]) was 0.000315 ± 4.3e-05 s⁻¹, the “self-cleavage kobs at 2500 uM GlcN6P” value (glucosamine-6-phosphate [6]) was 0.00079 ± 8.1e-05 s⁻¹ and the “self-cleavage kobs at 10000 uM GlcN6P” value (glucosamine-6-phosphate [7]) was 0.000933 ± 8.4e-05 s⁻¹.

With A6G A14C the kcat (glucosamine-6-phosphate [1]) was 0.000105 ± 2.8e-06 s⁻¹, the KM (glucosamine-6-phosphate [4]) was 2620 ± 210 µM and the “self-cleavage kobs at 2500 uM GlcN6P” value (glucosamine-6-phosphate [6]) was 5.24e-05 ± 8.1e-06 s⁻¹. The “self-cleavage kobs at 10000 uM GlcN6P” value (glucosamine-6-phosphate [7]) was 8.29e-05 ± 7.7e-06 s⁻¹.

With C16G C61U the kcat (glucosamine-6-phosphate [1]) was less than 1e-05 s⁻¹, the “self-cleavage kobs at 40 uM GlcN6P” value (glucosamine-6-phosphate [2]) was less than 1e-05 s⁻¹ and the “self-cleavage kobs at 160 uM GlcN6P” value (glucosamine-6-phosphate [5]) was less than 1e-05 s⁻¹.

C16U U57G was tested, and the kcat (glucosamine-6-phosphate [1]) was 7.51e-05 ± 1.3e-05 s⁻¹, the “self-cleavage kobs at 640 uM GlcN6P” value (glucosamine-6-phosphate [3]) was 3.61e-05 ± 1.3e-05 s⁻¹ and the “self-cleavage kobs at 2500 uM GlcN6P” value (glucosamine-6-phosphate [6]) was 4.22e-05 ± 8.4e-06 s⁻¹. For the same variant, the “self-cleavage kobs at 10000 uM GlcN6P” value (glucosamine-6-phosphate [7]) was 7.03e-05 ± 1.1e-05 s⁻¹.

For G13C U31G, the kcat (glucosamine-6-phosphate [1]) was 0.000196 ± 4.5e-06 s⁻¹, the KM (glucosamine-6-phosphate [4]) was 1560 ± 90 µM and the “self-cleavage kobs at 640 uM GlcN6P” value (glucosamine-6-phosphate [3]) was 5.79e-05 ± 1.2e-05 s⁻¹. For the same variant, the “self-cleavage kobs at 2500 uM GlcN6P” value (glucosamine-6-phosphate [6]) was 0.000119 ± 1.8e-05 s⁻¹ and the “self-cleavage kobs at 10000 uM GlcN6P” value (glucosamine-6-phosphate [7]) was 0.00017 ± 2.2e-05 s⁻¹.

For C11A A15C C70A, the kcat (glucosamine-6-phosphate [1]) was 4.15e-05 ± 2.7e-06 s⁻¹ and the “self-cleavage kobs at 10000 uM GlcN6P” value (glucosamine-6-phosphate [7]) was 4.27e-05 ± 1.9e-05 s⁻¹.

C16U C58A C67G was tested, and the kcat (glucosamine-6-phosphate [1]) was 0.000119 ± 2.4e-06 s⁻¹, the KM (glucosamine-6-phosphate [4]) was 283 ± 23 µM and the “self-cleavage kobs at 160 uM GlcN6P” value (glucosamine-6-phosphate [5]) was 4.51e-05 ± 1.9e-05 s⁻¹. For the same variant, the “self-cleavage kobs at 640 uM GlcN6P” value (glucosamine-6-phosphate [3]) was 8.08e-05 ± 1.6e-05 s⁻¹, the “self-cleavage kobs at 2500 uM GlcN6P” value (glucosamine-6-phosphate [6]) was 0.000106 ± 2e-05 s⁻¹ and the “self-cleavage kobs at 10000 uM GlcN6P” value (glucosamine-6-phosphate [7]) was 0.000118 ± 2.5e-05 s⁻¹.

U57G C70A was tested, and the kcat (glucosamine-6-phosphate [1]) was 4.31e-05 ± 1.5e-05 s⁻¹, the “self-cleavage kobs at 160 uM GlcN6P” value (glucosamine-6-phosphate [5]) was 3.33e-05 ± 1.3e-05 s⁻¹ and the “self-cleavage kobs at 640 uM GlcN6P” value (glucosamine-6-phosphate [3]) was 4.1e-05 ± 1.7e-05 s⁻¹. For the same variant, the “self-cleavage kobs at 2500 uM GlcN6P” value (glucosamine-6-phosphate [6]) was 6.82e-05 ± 1.9e-05 s⁻¹.
